Change in surface plasmon resonance signal data for one substance are collected here from patent publication US20100173430A1.

Assay [1] addresses human IgG (Sigma) (human). Briefly: SPR (BIAcore); protein G layer on gold thin film, human IgG 100 ug/ml injected.
Assay [2] has as its target anti-human Kallikrein 3/PSA antibody (R&D systems). Briefly: SPR (BIAcore); protein G layer on gold thin film, anti-PSA antibody 0.5 ug/ml injected. Background: Surface plasmon resonance follows binding to a sensor surface in real time, without labels.

For the substance “untagged Streptococcal protein G variant recombinant protein (B1 and B2 domains, not tagged with cysteine) (from UniProt P19909 313-497)”, the change in surface plasmon resonance signal in assay [1] turned out to be 1000 RU; in assay [2] it was 114 RU.
